What all share (test): enzyme inhibition kinetics (fluorogenic peptide substrate activity assay); inhibitor preincubated with protease 15 min, 37 °C; IC50 from residual velocities, Ki by the Cheng-Prusoff equation; 50 mM sodium acetate pH 5.5, 0.1% polyethylene glycol 1500, 2.5 mM dithiothreitol (cathepsins L, K, V, B, F, C and papain; 50 mM NaCl for cathepsin C)
Details in all cases: both partners purified

In assay [1] the target is T1, Carica papaya papain (Carica papaya, UniProt P00784 134-345).
T1 construct: source: bought: Merck
T1 sequence (looked up): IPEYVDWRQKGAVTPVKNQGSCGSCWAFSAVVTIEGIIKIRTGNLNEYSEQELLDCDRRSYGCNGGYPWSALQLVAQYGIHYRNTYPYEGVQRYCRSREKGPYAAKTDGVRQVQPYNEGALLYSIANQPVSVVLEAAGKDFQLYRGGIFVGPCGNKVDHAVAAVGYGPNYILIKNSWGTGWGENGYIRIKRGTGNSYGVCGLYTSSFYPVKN

The target in assay [2] is T2, human cathepsin V (human, UniProt O60911 114-334).
T2 construct: source: Pichia pastoris expression system, as described previously [12,56,57]

In assay [3] the target is T3, human cathepsin K (human, UniProt P43235 115-329).
T3 construct: source: Pichia pastoris expression system, as described previously [12,56,57]
T3 sequence (looked up): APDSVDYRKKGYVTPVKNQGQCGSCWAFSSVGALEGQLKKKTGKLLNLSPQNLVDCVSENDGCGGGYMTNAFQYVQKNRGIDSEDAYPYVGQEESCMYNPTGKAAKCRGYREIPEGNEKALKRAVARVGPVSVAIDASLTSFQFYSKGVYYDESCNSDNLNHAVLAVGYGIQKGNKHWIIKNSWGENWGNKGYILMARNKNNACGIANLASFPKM

Assay [4] has as its target T4, human cathepsin L (human).
T4 construct: source: Pichia pastoris expression system, as described previously [12,56,57]

In assay [5] the target is T5, human cathepsin F (human, UniProt Q9UBX1 271-484).
T5 construct: source: bought: Enzo Life Sciences
T5 sequence (looked up): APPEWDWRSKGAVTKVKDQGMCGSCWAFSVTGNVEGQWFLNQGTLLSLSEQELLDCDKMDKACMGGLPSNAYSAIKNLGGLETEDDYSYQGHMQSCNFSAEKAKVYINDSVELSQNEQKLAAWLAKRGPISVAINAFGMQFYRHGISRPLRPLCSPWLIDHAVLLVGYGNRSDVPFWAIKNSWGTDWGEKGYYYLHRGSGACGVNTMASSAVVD

These results are taken from article PMC10889554, “An Unusual Two-Domain Thyropin from Tick Saliva: NMR Solution Structure and Highly Selective Inhibition of Cysteine Cathepsins Modulated by Glycosaminoglycans” (International Journal of Molecular Sciences, 2024).

T2 sequence (O60911 114-334): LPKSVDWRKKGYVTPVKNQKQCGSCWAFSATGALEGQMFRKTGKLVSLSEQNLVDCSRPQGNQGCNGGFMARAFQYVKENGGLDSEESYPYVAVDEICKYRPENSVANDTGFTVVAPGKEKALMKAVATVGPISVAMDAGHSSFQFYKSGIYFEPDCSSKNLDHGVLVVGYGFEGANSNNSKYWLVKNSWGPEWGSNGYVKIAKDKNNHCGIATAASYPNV

B1: IrThy-Nd, recombinant N-terminal Tg1 domain of IrThy (domain or fragment)
chain: SNAASVPTRVANHGASRPLSDCEQRKQREERNTGPLAIHIECNPDGSYKPMQCFGNPDQPRRMCACYDQEYDQIKAPSRQLKSCK
The term Ki denotes a dissociation constant, usually derived from enzyme kinetics or from competition with a known ligand. The low end stands for a stronger hold on the target, the high end for a looser hold on the target. With B1, the inhibition constant (Ki) in assay [1] stood at 153 nM; in assay [2], 27.2 nM; in assay [3] it was 43.7 nM; in assay [4], 179 nM; in assay [5], 207 nM.
